Source: publication PMC12519199, “Molecular basis of SARS-CoV-2 proofreading enzyme–mediated resistance to remdesivir”

Target: nsp12 (RdRp catalytic subunit);nsp7;nsp8 (SARS-CoV-2;SARS-CoV-2;SARS-CoV-2, UniProt P0DTD1;P0DTD1;P0DTD1 4393-5324;3860-3942;3943-4140, ||)
Test: fluorescence polarization; higher affinity than T20P14-R
Conditions: protein: recombinant;recombinant;recombinant; tags: His6-Smt3 removed by Ulp1;His6-Smt3 removed by Ulp1;His6-Smt3 removed by Ulp1; copies: 1;1;2; label: 5'-FAM (FP); hairpin, UUCG loop, 5' overhang 5 nt

GGGAAUGGGAUUUUAAUAGCUUCGGCUAUUAAAAUCCCA (structured_RNA) [T20P14-A]
binding result: binds
